We go through 3 molecules from patent publication US9371393B2, “Class I anti-CEA antibodies and uses thereof” (Immunomedics, Inc., priority 2009, dated 2016).

For one series, the target named is RIIα dimers (DDD) (Homo sapiens, UniProt P13861). The settings on record: Alto et al. 2003; read-out: affinity / binding constant for RIIα dimers (DDD); cited from earlier work.
In the next series the test system is tumor cell invasion. The experiment in a line: Collagen-based invasion assay, cell line panel. Details: species or system human. The method, then: Collagen-based invasion assay—The assay was done using CHEMICON® Kit (#ECM551, MILLIPORE®, Billerica, Mass.). Tumor cells at 80% confluence and were serum-starved for 18 to 24 hours before the assay was used. Cells were harvested with 5 mol of 2 mmol/L EDTA/PBS per 100-mm dish and incubated at 37° C. for 5 to 15 minutes. Cells were collected into 10 to 20 mol of quenching medium (serum-free DMEM containing 5% BSA) to inactivate trypsin/EDTA from the harvesting buffer. Cells were pelleted, resuspended in quenching medium (1×10^6 cells/mol), and appropriate antibody Fabs were added to individual cell aliquots. Cell invasion potential was determined as follows. Baseline invasion and invasion in the presence of a chemoattractant (10% FBS) were measured after a 72-hour incubation period at 37° C. in a 5% CO2 incubator. The bottom side of the collagen-coated polycarbonate membrane insert of the invasion chamber was placed in 400 μL of cell stain for 20 minutes at room temperature and washed. The dye was extracted and transferred into a 96-well microtiter plate for colorimetric measurements (A560 nm).

Series [1] has as its system GW-39 human colonic carcinoma. Kind of series: GW-39 intrapulmonary micrometastasis model (GW-39iv), survival. In kind it is in vivo, nude mice. The note with it: cells pretreated with Fab′ 10 μg/mol, 100 μg i.v. 1 day after implantation; untreated 42 days. The method, then:
FIG. 7 illustrates an exemplary in vivo micrometastasis study. Top, immunohistochemistry of GW-39 tumor sections stained with a nonspecific antibody (left), MN-14 anti-CEACAM5 (middle), and MN-15 anti-CEACAM6 (right) and photographed at 100×. Bottom, survival of nude mice implanted with 30 μL of a 10% suspension of GW-39 human colonic cancer cells. Mice were implanted with cells that were […] for 30 minutes with MN-3-, MN-15-, or hMN-14-Fab′ (10 μg/mol). Mice also received a single 100 μg dose of the same Fab′ 1 day after cell implantation.
In vivo therapy studies—Female athymic nude mice (6 to 8 weeks old) were purchased from TACONIC® (Germantown, N.Y.). Therapy studies were done using our CEACAM5+/CEACAM6+GW-39 intrapulmonary micrometastasis model, GW-39iv (Sharkey et al., J Natl Cancer Inst 1991, 83:627-32; Blumenthal et al., Cancer Res 1992, 52:6036-44). The GW-39 human colonic carcinoma has been maintained as a serially transplanted signet-ring cell cancer line since 1966 (Goldenberg et al., Transplantation 1966, 4:760-4). […] Body weight was monitored weekly and animal survival recorded. Results were analyzed by the Kaplan-Meier estimated survival curves, and significance was determined with the log-rank comparison of survival curves. Median survival time for each treatment group also was determined. […]

Another series concerns the target T1, CEA (Homo sapiens, UniProt P06731).
T1 sequence (P06731 35-676): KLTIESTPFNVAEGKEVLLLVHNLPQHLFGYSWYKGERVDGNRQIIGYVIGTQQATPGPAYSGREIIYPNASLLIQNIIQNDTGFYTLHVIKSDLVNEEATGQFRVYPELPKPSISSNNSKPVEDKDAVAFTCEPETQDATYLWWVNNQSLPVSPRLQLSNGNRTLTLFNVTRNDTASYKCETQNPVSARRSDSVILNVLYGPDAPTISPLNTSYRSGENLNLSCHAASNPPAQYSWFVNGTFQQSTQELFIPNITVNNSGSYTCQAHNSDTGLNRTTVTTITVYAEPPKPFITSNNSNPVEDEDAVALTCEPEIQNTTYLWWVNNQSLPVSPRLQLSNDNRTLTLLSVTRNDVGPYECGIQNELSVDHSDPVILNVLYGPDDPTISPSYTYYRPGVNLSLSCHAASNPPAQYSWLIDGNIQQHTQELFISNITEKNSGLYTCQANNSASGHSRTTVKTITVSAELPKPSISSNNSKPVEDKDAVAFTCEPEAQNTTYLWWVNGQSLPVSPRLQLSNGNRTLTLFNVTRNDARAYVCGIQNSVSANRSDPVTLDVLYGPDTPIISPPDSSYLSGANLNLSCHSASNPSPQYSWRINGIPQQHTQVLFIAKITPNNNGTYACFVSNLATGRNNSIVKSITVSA
Kind of series: Competitive CEA binding against HRP-labeled murine MN-15. The note with it: competition with HRP-labeled murine MN-15. From the text: To make a chimeric MN-15 antibody, the murine MN-15 variable region sequences were attached to human IgG1 constant region sequences, as described in Leung et al., Hybridoma 13:469 (1994). The sequences of the murine MN-15 VK (SEQ ID NO:9) and MN-15 VH (SEQ ID NO:10) used to construct the chimeric MN-15 (cMN-15) are shown in FIG. 2 and FIG. 3.

Series [2] deals with liver metastases of sigmoid colon cancer. Kind of series: Sigmoid colon cancer therapy with hMN-15 and GM-CSF, patient two. The class given is in vivo, human. Set-up: blood CEA titer / CEA titer: unit not given here. The method, then:
patient two is a person who is refractive to chemotherapy with 5-fluorouracil and leucovorin to reduce their metastases to the liver found at the time of removal of their sigmoid colon cancer. […] Other radiological studies appear to be normal. Immunotherapy with humanized anti-CEA IgG (hMN-15) monoclonal antibody is begun on a weekly basis for 4 weeks, at an intravenous dose of 300 mg/m^2 infused over 2 hours. One week prior to hMN-15 therapy, the patient receives 2 subcutaneous injections of 200 μg/m^2 GM-CSF, 3 days apart, and continued twice weekly during the 4 weeks of hMN-15 therapy. After these four weeks, both hMN-15 and GM-CSF are given at the same doses every other week for an additional 3 months, but the dose of GM-CSF is increased to 250 μg/m^2. Prior to each administration of the humanized anti-CEA antibody, the patient is given diphenhydramine (50 mg orally), and acetaminophen (500 mg orally).

Series [3] concerns liver and lung metastases of colon cancer. The experiment in a line: Combined immunotherapy and chemotherapy of metastatic colon cancer, patient one. Set-up: blood CEA titer: unit not given here. In kind it is in vivo, human. The method, then:
patient one is a person presenting with liver and lung metastases of colon cancer following resection of the primary tumor. They are placed on a combined chemotherapy and immunotherapy protocol based on the Gramont schedule (de Gramont et al., J Clin Oncol. 2000, 18:2938-47), but with the addition of humanized anti-CEA monoclonal antibody IgG1 (hMN-15). Prior to infusions of the antibody, they receive 50 mg orally of diphenhydramine and 500 mg orally of acetaminophen. They receive a 2-hr infusion of leucovorin (200 mg/m^2/day) followed by a bolus of 5-fluorouracil (400 mg/m^2/day) and 22-hour continuous infusion of 5-fluorouracil (600 mg/m^2/day) for 2 consecutive days every 2 weeks, together with oxaliplatin at 85 mg/m^2 as a 2-hr infusion in 250 mol of dextrose 5%, concurrent with leukovorin on day 1 (FOLFOX4 schedule). The patient also receives anti-emetic prophylaxis with a 5-hydroxyltryptamine-3-receptor antagonist. One week prior to this 2-week chemotherapy cycle, hMN-15 monoclonal anti-CEA antibody is infused over 2 hrs at a dose of 200 mg/m^2, and repeated each week of the 2-week chemotherapy cycle, and every week thereafter for the next month with another chemotherapy cycle. Also, a subcutaneous dose of 5 μg/kg/day of G-CSF is administered once weekly beginning with the second chemotherapy cycle, and continued at this dose for the duration of immunotherapy with hMN-15 antibody, over the next 3 months.
A total of 5 cycles of chemotherapy is performed with continued administration of hMN-15 antibody and filgrastim. Thereafter, hMN-15 and filgrastim therapy is given, at the same doses, every other week for the next 3 months, without chemotherapy. The patient is staged 2 months later, and their liver and lung metastases show shrinkage by computed tomography measurements of >80 percent of disease measured in the liver and lungs, as compared to the measurements made prior to therapy. […] They are followed over the next 6 months, and their disease appears to be stable, with no new lesions found and no increase in the disease remaining in the liver and lungs. […] The patient also experiences diarrhea, mucositis, nausea and vomiting during the chemotherapy cycles, but these are not excessive.

In series [4] the test system is SUM1315 breast cancer model. The experiment in a line: hMN-15 pretreatment and CPT-11 in SUM1315 breast cancer model. In kind it is in vivo. The settings on record: single agent; dosages as in Example 5. The method, then: The effects of pre-treatment with naked hMN-15 CEA Mab given 3 days prior to CPT-11 treatment is examined in a SUM1315 breast cancer model (Kuperwasser et al., Cancer Res. 2005, 65:6130-38). CPT-11 alone, hMN-15 alone, and combination therapy of hMN-15+CPT-11 where the hMN-15 is administered 3 days prior to the CPT-11 are compared. Dosages are as indicated in Example 5. hMN-15 alone increases median survival time by 21% under these conditions. CPT 11 alone increases survival by 76%. By contrast, the combination therapy where hMN-15 is administered 3 days prior to CPT-11 produces a median survival time increase of an additional 58% above CPT-11 alone. […] The synergistic effect of hMN-15 antibody with CPT-11 therapy is surprising.

For series [5], the system named is TT human medullary thyroid cell line tumors. Kind of series: hMN-15 and DTIC in TT medullary thyroid cancer xenografts. The note with it: at 7 weeks, DTIC 75 μg/dose, hMN-15 100 μg/dose. In kind it is in vivo, nu/nu mice.
Method: Tumors are propagated in female nu/nu mice (Taconic Farms, Germantown, N.Y.) at 6-8 weeks of age by s.c. injection of 2×10^8 washed TT cells, which is propagated in tissue culture. Antibodies are injected i.v., via the lateral tail vein, into the tumor-bearing animals. Tumor size is monitored by weekly measurements of the length, width, and depth of the tumor using a caliper. Tumor volume is calculated as the product of the three measurements.
To study whether naked hMN-15 can add to the efficacy of DTIC, TT bearing nude mice are given DTIC (75 μg/dose) in combination with a course of treatment of the unlabeled MAb. DTIC is administered for 3 consecutive days at 75 μg/dose as one course, beginning 2 days after s.c. injection of TT cells. hMN-15 MAb treatment is initiated 3 days prior to the first dose of DTIC, at 100 μg/dose/day for 5 days in the first two weeks, then twice weekly.
[6] abbreviates: hMN-15 with GM-CSF, restaging after another 2 months.

RIIα dimers (DDD), sequence (P13861 whole entry): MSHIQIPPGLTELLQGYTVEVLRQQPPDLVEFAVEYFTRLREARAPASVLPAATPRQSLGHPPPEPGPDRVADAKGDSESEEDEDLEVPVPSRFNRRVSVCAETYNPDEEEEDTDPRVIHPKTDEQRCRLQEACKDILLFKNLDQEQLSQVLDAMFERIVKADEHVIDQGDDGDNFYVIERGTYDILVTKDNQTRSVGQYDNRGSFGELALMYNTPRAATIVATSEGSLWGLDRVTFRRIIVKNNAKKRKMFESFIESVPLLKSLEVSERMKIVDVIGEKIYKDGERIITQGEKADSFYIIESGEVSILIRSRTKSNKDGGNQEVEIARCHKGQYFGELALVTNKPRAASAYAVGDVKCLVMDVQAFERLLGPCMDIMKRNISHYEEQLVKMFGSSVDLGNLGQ

As to QIEYLAKQIVDNAIQQA [AKAP-IS], on RIIα dimers (DDD), the Kd is 400 pM.

B1: hMN-14 Fab′: Fab′ of MN-14 in its humanized form, hMN-14 or labetuzumab (antibody, chains of the INN, looked up, V domains shown)
VH: EVQLVESGGGVVQPGRSLRLSCSASGFDFTTYWMSWVRQAPGKGLEWIGEIHPDSSTINYAPSLKDRFTISRDNAKNTLFLQMDSLRPEDTGVYFCASLYFGFPWFAYWGQGTPVTVSS
VL: DIQLTQSPSSLSASVGDRVTITCKASQDVGTSVAWYQQKPGKAPKLLIYWTSTRHTGVPSRFSGSGSGTDFTFTISSLQPEDIATYYCQQYSLYRSFGQGTKVEIK
modifications: Fab′
notes: Fab′ of MN-14 in its humanized form, hMN-14 or labetuzumab
As for B1, the “effect on tumor cell invasion” value in the series with tumor cell invasion was “had no effect on tumor cell invasion in most cell lines”. In series [1], the median survival time amounted to 49 days.

B2: hMN-15: humanized MN-15, VK SEQ ID NO:7 and VH SEQ ID NO:8, REI/KOL frameworks, human IgG1 (antibody, V domains shown)
VH: QVQLVESGGGVVQPGRSLRLSCSSSGFALTDYYMSWVRQAPGKGLEWLGFIANKANGHTTDYSPSVKGRFTISRDNSKNTLFLQMDSLRPEDTGVYFCARDMGIRWNFDVWGQGTPVTVSS
VL: DIQLTQSPSSLSASVGDRVTMTCSASSRVSYIHWYQQKPGKAPKRWIYGTSTLASGVPARFSGSGSGTDFTFTISSLQPEDIATYYCQQWSYNPPTFGQGTKVEIKR
modifications: human IgG1 constant regions
Take B2: in the series with CEA, the “affinity for CEA compared with parent murine MN-15” value is on record as “virtually identical” and the dissociation constant entry was “nanomolar range”. In series [2] (hMN-15 300 mg/m^2 with GM-CSF, first restaging), the “decrease of sum of the diameters of the measurable tumors in the liver” value stood at 40%. The adverse reactions result in series [2] (hMN-15 with GM-CSF) was “no adverse reactions to the therapy”. For the same molecule, in series [2] (hMN-15 with GM-CSF, first restaging, at presentation 34 ng/mol), the “blood CEA titer” value amounted to 18. In addition, in series [2] (setting [6]), the CEA titer is on record as 10 and the “tumor decrease over the pre-therapy baseline” value was above 65%. In series [3] (hMN-15 200 mg/m^2 with FOLFOX4 schedule and G-CSF (filgrastim)), the “shrinkage of liver and lung metastases by computed tomography” value is given as above 80%. The “adverse events when only immunotherapy is administered” value in series [3] (hMN-15 and filgrastim without chemotherapy) is given as “does not experience any adverse events”. Besides, in series [3] (hMN-15 with FOLFOX4 and filgrastim, during chemotherapy cycles), the predominant toxicity result was “peripheral sensory neuropathy”. For the same molecule, the “blood CEA titer” value in series [3] (hMN-15 with FOLFOX4 and filgrastim, pre-therapy level 63 ng/mol) is reported as 9. Besides, in series [4], the “increase of median survival time” value amounted to 21%. In series [5] (untreated 0/10), the “mice with no palpable tumor” value was 0/10. The mean tumor volume in series [5] (untreated 1.578+0.959) was 0.899+0.545 cm^3.
